Target: the molecule itself
Assay: cryo-EM structure; single-particle cryo-EM of DDM-solubilized, purified EcZntB pre-treated with EDTA (apo), ~10 mg/ml, 50 mM Tris/HCl pH 8.0, 250 mM NaCl, 0.03% DDM; overall resolution 4.2 Å

B1: ZntB from Escherichia coli, full-length (natural protein, UniProt P64423 1-327, looked up)
chain: MEAIKGSDVNVPDAVFAWMLDGRGGVKPLENTDVIDEAHPCWLHLNYVHHDSAQWLATTPLLPNNVRDALAGESTRPRVSRLGEGTLITLRCINGSTDERPDQLVAMRVYMDGRLIVSTRQRKVLALDDVVSDLEEGTGPTDCGGWLVDVCDALTDHSSEFIEQLHDKIIDLEDNLLDQQIPPRGFLALLRKQLIVMRRYMAPQRDVYARLASERLPWMSDDQRRRMQDIADRLGRGLDEIDACIARTGVMADEIAQVMQENLARRTYTMSLMAMVFLPSTFLTGLFGVNLGGIPGGGWQFGFSIFCILLVVLIGGVALWLHRSKWL
notes: Zinc transporter ZntB of Escherichia coli (CorA metal ion transporter family), full-length; Homopentamer in DDM micelles, apo (pre-treated with EDTA); TEV protease (ProTev Plus) is described only for the proteoliposome transport assay, not for the cryo-EM sample; also called EcZntB; source: membrane vesicles solubilized in DDM, purified (Ni2+-sepharose, EDTA treatment, Superdex 200 SEC)
  stoichiometry N: 5

Source: PMC5670123, “The structural basis of proton driven zinc transport by ZntB” (Nature Communications, 2017)
